Data published in the nanobody polyreactivity screen of Harvey et al. (2022).

Experiment: yeast display, Sf9 membrane polyspecificity reagent, FACS + sequencing; frameworks hold sequencing errors
In short: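 Synthetic nanobody libraries on Saccharomyces cerevisiae BJ5465 were galactose-induced for 36–48 hours, stained 1 hour at 4 °C with 10% biotinylated, detergent-solubilized Sf9 membrane reagent and enriched on streptavidin microbeads. FACS then separated cells into low and high (top ~1%) gates by anti-HA (expression) and streptavidin (reagent binding) fluorescence. Genes were colony-PCR amplified, MiSeq 2 × 250 sequenced and CDR-length filtered. A clone's polyreactivity label is that of its gate of origin.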

Sequence | polyreactivity (PSR sort gate)
QVQLVESGGGLVQAGGSLRLSCAASGFIFRRYVMGWYRQAPGKERELVAAISTSGGSTYYADSVKGRFTISRDNAKNSVYLQMNSLKPADTAVYYCNKAVGVTGFDYWGQGTEVTVSS | high polyreactivity
QVPLVESGGGLVQAGGSLRLSCAASGSTLWVYAMGWSRQAPGKERELVAAITQSTGDTHYADSVKGRFTISRDNAKNTVYLQMNSLKPEDTAVYYCAADSYLSVYDPYGDWGQGTQVTVSS | low polyreactivity
QVQLVESGGGLVQAGGSLRLSCAASGSTFTYYAMGWYRQAPGKERELVAAISSNGGSTSYADSVKGRFTISRDNAKNTVYLPMNRLKPEDTAVYYCAVYKWSTRVSQYRYDYWGQGTQVTVSS | high polyreactivity
QVQLVESGGGLVQAGGSLRLSCAASGFILFFNAMGWYRAPWKERELVAGITQSGGSTYYADSVKGRFTISRDNAKNPVYLQMNSLKPEDTAVYYCAAELYDRWSRMDYWGQGTQVTVSS | low polyreactivity
QVQLVESGGGLVQAGGSLRLSCAASGFIFENNAKGWYRQAPGKERELVAGITSGGGSTYYADSVKGRFTISRDNAKNTVYLQMNSLKPEDTAVYYFNKLYTRVGFTFEYWGQGTQVNVSS | low polyreactivity
QVQLVESGGGLVQAGGSLRLSCAASGRILRPYAMGWYRQAPGKERELDAGITVRGGTTYYADSVKGRFTISRDNAKNTVYLQMNILKPEDTAVYYCAATDIHYGPSYIPYWYGYCGQGTQVTVSS | high polyreactivity
QVQLVESGGGLVQAGGSLRLSCAASGRTFGEYTMGWYRQAPGKERELVAAISSAGRTNYADSVKGRFTISRDNAKNTVYLQMNSLKPEDTAVYYCAKTAERLHYGVYRFDYWGQGTQVTVSS | low polyreactivity
QFQLVESGRGLVQAGGSIRLSCAASGSIFRWYAMGWSRQAPGKERELVAAISYGGGSTYYADSVKGRFTISRDNAKNTVYLQMNRLKPEDTAVYYCNRGYPSTLYDYWGQGTQVTVSS | high polyreactivity
QVQLVESGRGLVQAGGSLRLSCAASGNTFGENAMGWYRKAPGKERELVAAISNGGTTNYADSVKGRFTISRDNAKNSVYLQMNSLKPEDTAVYYCNAKFGISQPGHSGLLKMDYWGQGTQVTVSS | low polyreactivity
QVQLVESGGGLVQAGGSLRLSCAASGRTFVANTMGWYRQAPGKEREFVAGISRRGGSTYYADSVKGRYTISRDNAKNTVYLQMNSLKPEDPAVYYCAVGTWARYRGLEYDYWGQGTQVTVSS | high polyreactivity
PVQLVDSGGGLVQAGGSLRLSCGASGRTFRKYGIGWYRQAAGKERELVAGISRSGGTTYYADTVKGRFTISRDTAKNTVYLQMNSLKPEDTAVYYCAKRTGPSGEDYWGQGTQVTVSS | high polyreactivity
QVQLVESGGGLVQAGGSLRLSCAASGSTFIGYDMGWFRQAPGTERELVAAISYSDGTYYADSVKGRFTISRDNAKNTVYLQMNSLKPEDTAVYYCAADSLYYRYDYWGQGTQVTVSS | low polyreactivity
QVQLVESGGRLVQAGGSLRISSAASGFIFYKYTMGWYRQAPGKERELVAAITRSGGSTYYADSVKGRCTISRDNAKNTVYLQMNSLKPEDTAVYYCAATQSFRRNYDYWGQGTQVTVSS | high polyreactivity
QVQLVESGGGLVQAGGSLRLSCAASGFTFGFYAMGRYRQAPGKERELVARISYSGGSTYYADSVKGRFTISRDKAKNTVYLQMNSLKPEDTAVYYCNRGYRRLQEDYWGQGTQVTVSS | high polyreactivity
QVHLVESGGGLVQAGGSLRLSCAASGITFRRNAMGWYRQAPGKERELVARITVSGGTTYYADSVKGRFTISRDYAKNTVYLQMNSLKPEDTAVYYCAKVWHSSRVSPYDYWGQGTQVTVSS | low polyreactivity
QVQIVESGGGLVQAGGSLRLSCAASGRIFDGYAMGWYRQAPGKERELVAAISLSDGSTYYADSVKGRFTISRDHAKNTVYLQMNILKPEDTAVYYCAARVQHYLATDDYWGQGTQVTVSS | low polyreactivity
QVQLVESGGGLDQAGGSLRLSCAASGRTFGTYVMGWSRQAPGKERELVAAITGSGGSTYYADSVKGRFTISRDIAKNSVYLQMNSLKPEDTAVYYCSAKYRRPRYGFWGQGTQVTVSS | high polyreactivity
QVQLVESGGGLVQAGGRLRLSCAASGRTFEGYAMAWYRQAPGKERELVAAISGSSGSTYYADSVKGRFTISRDNAKNTVYLQMNSLKPEDTAVYYCNADYDWPGGSDYWGQGTQVTVSS | low polyreactivity
QVQLVESGGGLVQAGGSLRLSCAASGLLFGRNVMGWYRQGPGKERELVAAISWSGGRTYYADSVKGRFTISRDNAKNTVYLQMNSLKPEDTAVYYCAADDGPGFDYWGQGTQVTESS | high polyreactivity
QVQLVESGGGLVQAGGSLRLSCAASGLTFTFYTMGWYRQAPGKERELVAAISIGGSTYYADSVKGRFTISRDNAKNTVYLQMNSLKQEDTAVYYCAAGYSRYYGHWGYYYWGQGTQVTVSS | high polyreactivity
QVQLVESGGGLVQAGGSLRLSCAASGYTFNFNAMGWYRQAPGKERELVAAITWNGGRTYYADSVKGRFTISRDNAKNTVYLQMNSLKPEDTAVYYCAARSYQRPSDTRYDYWGQGTQVTVSS | high polyreactivity
QVQLVESGGGLVQAGGSLRLTCAASGRTFYFYTMGWYRQAPGKERELVATITWRGGRTYYADSVKGRFTITRDNAKNTVYLQMNSLKPEDTAVYYCNADYASYRHRMDYWGQGTQVTVSS | high polyreactivity

Sequence | polyreactivity (PSR sort gate)
QDQLVESAGGLVQAGGSLRLSCAASASIFVSYAMGWYRQAPGKERELVAAITRSGGSTYYSDSVKGRFTISRDNAKYTVYLQMNSLKPDDTAVYYCAARSYLGAYRRFYWGQGTQVTVSS | high polyreactivity
QVQLVESGGGLVQAGGSLRLSCAASGIIFKYYAMGWYRQAPGKERELVAVISRSGGGTYYADSVKGRFTISRDNAKNTVYLQMNSLKPEDTAVYYCAAERSSGFDYWGQGTQVTVSS | high polyreactivity
QVQLVESGGGLVQAGGSLRLSCAASGFIIPGYAMGWYRQAPGKERELVAAISSGTSTYYEDSVKGRFTISRDNAKNTVYLQMNSLKPEATAVYDCAAETWYRFGYWGQGTQVTVSS | low polyreactivity
QVQLVESGGGLVQAGGSLRLSCAASGRIFGNYAMGWYRQAPGKERELVAAIRWSGGRTYYADSVKGRFTISRDTAKNTVYLQMNSLKPEDTAVYYCNAYGRYSYPTFDYWGQGTQVTVSS | high polyreactivity
QVQLVESGGGLVQAGGSLRLSCAASGRTLKYNAMGWYIQAPGKERELVAGISWSGTRTYYADSVKGRFTISRDIAKNTVYLQMNSLKPEETAVYYCAAYSYLYRSSGFRYNYWGQGTPVTVSS | high polyreactivity
QVQLVESGGGLVQAGGSHRLSGAASGFIFFYYDMGWYRQAPGKERELVAAISWSGSSTYYADSVNGRFTISRDNAKNTVYLQMNSLNTEDTAVYYCAARYAPSQDWDEYYYWGQGTQVTLSS | low polyreactivity
QVQLVDSGGGLVQAGGSLRLSCAASGRIFHGYAMGWYRLAPGKERELVAAISWRGDSTYYADSVKGRFTISRDNAKNTVYLQMNSLKPEDTAVYYCAAASRSWRDDYWGQGTQVTVSS | low polyreactivity
QVQLVESGGGLVQAGGSLRLSCAASGRIFDRYVMGWYRQAPGKERELVAAISSGGSTYYADSVKGRFTISRDNAKNTVYLQMNSLKPEDTAVYYCAADRRSKYDYWGQGTQVTVSS | low polyreactivity
QVQLVESGGGLVQAGGSLRLSCAASGLIFYYYAMGWYRPAPGKERELVAAISRRGGSTYYADSVKGRFTISRDNAKNTVYLQMNSLKPEDTAVYYCNKYRSYWSGPSYWREYDYWGQGTQVTVSS | high polyreactivity
QVQLVESGGGLLQAGGSLRLSCAASGRTIVQNAMGWYRQAPGKERELVASIRYRDGSTYYADSVKGRFTISRDNAKNTVYLQMNSLKTEDTAVYYCAVRYYRKYYYSPFDYWGQGTQVTVSS | high polyreactivity
QVQLVESGGGLVQEGGSLSLSCAASGITFRSYTMGWYRQAPGKERELLAGITRRGGSTFYADSVKGRFTISRDNATNTVYLQMNSLNPEDTAVYFCAVGFYYLSSWYSYDYRGQGTQVTVSS | high polyreactivity
QVQLVESGGGLVQAGGSLRLSCAASGRIFYAYAMGWYRQAPGKEREMVAAISKGGGSTYYADSVKGRFTISRDNAKNSVYLQMNSLKPEDTAVYYCNAQQYPYHIKYDYWGQGSQVTVSS | low polyreactivity
QVQLGESGGGLVQAGGSLRLSCAASAYIFGSYAMGRSRQAAGKERELVATISYRAGRTYYADSVKGRFTISRDNAKNTVYLQMNSLKPEYTAVYFSDADFVIDLEYDYWGQGTQVTVSS | low polyreactivity
QVQLVESGGGLVQAGGSLRLSCAASGRIFLHNAMGWYRQAPGKERELVAAITSGGNTNYADSVKGRFTISRDNAKNTVYLQMNSLKPEDTAVYYCATVGKVHHRLVAMDYWGQGTQVTVSS | low polyreactivity
QVQLQESGGGLVQAGGSLRLTCAASGSIFLNSEMGWYRQAPGKERELVAAIATGTSTNYADSVKGRFTISRDNAKNTVYLQMNSLKPEDTAVYYCATYHYWGQGTQVTVSS | low polyreactivity
QVQLVESGGGLVQAGGSLRLSCAASGIIFAFSAMGWYRQAPGKERELVAGITSGGDTYYADSVKGRFTISRDNAKNTVYLQMNSLKPEDTAVYYCAADVQYPNRAGWLYWYATNFDYWGQGTQVTVSS | high polyreactivity
QVQLVESGGGLVQAGGSLRLSCAASGRTFHHNTMGWYRQAPGKERELVAAISSGGSTNYADSVKGRFTISRDNAKNTVYLQMNSLKPEDTAVYYCNADGGFLQRTGYDYWGQGTQVTVSS | low polyreactivity
QVQLVESGGGLVQAGGSLRLSCAASGSIIARYAMGWYRQAPGKERELVAANTWSATSTYYADSVKGRFTISRDNAKNTVYLQMNSLKPEDTAVYYCNAGASYFLVISQSRGDYWGQGTQVTVSS | low polyreactivity
QVQLVESGGGLVQAGGSLRLRCAASGRILVRYAMGWYRQAPGKERELVAAISRGGSTTYADSVKGRFTISRDNAKNTVYLQMNSLKPEDTAVYYCAAGRYPYNRDYWGQGTQVTVSS | high polyreactivity
QVQLVESGGGLVQAGGSLRLSCAASGSTFNYYAMGGNRQAPGKESELVAAISTRGSSTSYADSVKGRFTISRDNAKNTVYLQMNSLKPEDTAVYYCTAPRWSPRRYGYWGQGTQVTVSS | high polyreactivity
QVQLVESGGGLVQAGGSLRISCAASGSIFAKNAMGWYRQAPGKERELVAGIDFSGGSTYYADSVKGRFTISRDNAKNTVYLQMNSLKPEDTAVYYCAADWAYKYELDYWGQGTQVTVSS | low polyreactivity
